Values joined by “and” are separate entries in the source; they are usually repeats but may differ in a detail not shown here. Equal entries are not always repeated.
Tests used:
[1] = system: Scm3(HJURP) (Saccharomyces cerevisiae (W303, SBY3 derivative)); experiment: single-molecule TIRFM residence assay; conditions: yeast whole cell extract, single-molecule TIRFM on surface-tethered DNA; buffer, salt, pH and temperature not given in the material
[2] = system: Cse4(CENP-A)-GFP (Saccharomyces cerevisiae (W303, SBY3 derivative)); experiment: single-molecule TIRFM endpoint colocalization; conditions: yeast whole cell extract, single-molecule TIRFM on surface-tethered DNA; buffer, salt, pH and temperature not given in the material
[3] = system: Cse4(CENP-A)-GFP (Saccharomyces cerevisiae (W303, SBY3 derivative)); experiment: single-molecule TIRFM endpoint colocalization; conditions: yeast whole cell extract, single-molecule TIRFM on surface-tethered DNA, buffer, salt, pH and temperature not given in the material
[4] = system: Ndc10-mCherry (CBF3 component) (Saccharomyces cerevisiae (W303, SBY3 derivative)); experiment: single-molecule TIRFM endpoint colocalization; conditions: WT extract; yeast whole cell extract, single-molecule TIRFM on surface-tethered DNA; buffer, salt, pH and temperature not given in the material
[5] = system: histone H3 (Saccharomyces cerevisiae (W303, SBY3 derivative)); experiment: single-molecule TIRFM endpoint colocalization; conditions: yeast whole cell extract, single-molecule TIRFM on surface-tethered DNA, buffer, salt, pH and temperature not given in the material

Substance | binding signal (% DNA colocalized) ([3]; WT extract) | binding signal (% DNA colocalized) [3] | binding signal (% DNA colocalized) ([5]; low level) | also measured
CEN3 DNA (WT, ~750 bp) | 50 | 19.3 | 5.5 | binding signal (residences per DNA (45 min)) [1]: 0.57; binding signal (% DNA colocalized) [2]: 5 and 8; binding signal (% DNA colocalized) [4]: 70
alpha-sat CEN DNA |  | 1.7 |  | 
CEN9 DNA | 22 |  |  | 
CEN7 DNA | 18 |  |  | 
Widom-601-CDEIII hybrid |  | 3.1 | 4.1 | 
Widom-601 DNA |  |  |  | binding signal (% DNA colocalized) [5]: 7.1

Source: publication PMC10476280
